In US10500249B2, “Compositions and methods for preventing or treating diseases, conditions, or processes characterized by aberrant fibroblast proliferation and extracellular matrix deposition” (MOERAE MATRIX, INC., priority 2014, dated 2019):

How the values were obtained:
Test in all cases: Kinase Profiling Assay
Format in all cases: biochemical
Details in all cases: 100 μM
Flt1 (h) = Flt1 (h) (Homo sapiens, UniProt P17948)
How it was run: (§1)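 Measured twice per kinase, activity in presence of MK2 inhibitory peptide was calculated against a 100% activity control after radiometric phosphorylation of a cationic substrate, anionic filter capture and scintillation counting; one of 266 human kinases profiled for specificity.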

NEK6 (h) = molecular target: T1, NEK6 (h) (Homo sapiens, UniProt Q9HC98)
T1 construct: purchased Millipore
How it was run: as §1

Rse (h) = molecular target: T2, Rse (h) (Homo sapiens, UniProt Q06418)
T2 sequence (Q06418 41-890): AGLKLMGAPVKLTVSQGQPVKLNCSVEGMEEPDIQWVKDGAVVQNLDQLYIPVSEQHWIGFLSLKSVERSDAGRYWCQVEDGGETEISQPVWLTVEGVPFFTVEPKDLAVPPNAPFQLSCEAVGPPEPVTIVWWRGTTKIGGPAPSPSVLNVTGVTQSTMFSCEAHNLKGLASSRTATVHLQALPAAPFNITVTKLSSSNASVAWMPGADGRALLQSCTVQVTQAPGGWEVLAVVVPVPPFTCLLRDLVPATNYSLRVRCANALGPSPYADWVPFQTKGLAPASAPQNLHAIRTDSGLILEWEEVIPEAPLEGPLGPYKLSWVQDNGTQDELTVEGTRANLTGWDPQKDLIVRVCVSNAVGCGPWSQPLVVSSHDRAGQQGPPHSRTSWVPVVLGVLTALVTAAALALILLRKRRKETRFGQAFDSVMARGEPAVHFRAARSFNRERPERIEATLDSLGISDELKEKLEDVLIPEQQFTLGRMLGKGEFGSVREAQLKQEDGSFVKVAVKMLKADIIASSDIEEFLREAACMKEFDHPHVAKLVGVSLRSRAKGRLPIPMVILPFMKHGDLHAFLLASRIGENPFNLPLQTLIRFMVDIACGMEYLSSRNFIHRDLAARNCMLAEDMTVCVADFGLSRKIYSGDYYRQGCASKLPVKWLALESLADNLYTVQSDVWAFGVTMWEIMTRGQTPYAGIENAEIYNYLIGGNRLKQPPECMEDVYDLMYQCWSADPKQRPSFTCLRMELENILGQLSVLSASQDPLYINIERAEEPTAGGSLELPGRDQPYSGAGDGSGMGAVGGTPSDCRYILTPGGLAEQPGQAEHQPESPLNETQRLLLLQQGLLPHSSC
How it was run: as §1

TBK1 (h) = molecular target: T3, TBK1 (h) (Homo sapiens, UniProt Q9UHD2)
T3 sequence (Q9UHD2 1-729): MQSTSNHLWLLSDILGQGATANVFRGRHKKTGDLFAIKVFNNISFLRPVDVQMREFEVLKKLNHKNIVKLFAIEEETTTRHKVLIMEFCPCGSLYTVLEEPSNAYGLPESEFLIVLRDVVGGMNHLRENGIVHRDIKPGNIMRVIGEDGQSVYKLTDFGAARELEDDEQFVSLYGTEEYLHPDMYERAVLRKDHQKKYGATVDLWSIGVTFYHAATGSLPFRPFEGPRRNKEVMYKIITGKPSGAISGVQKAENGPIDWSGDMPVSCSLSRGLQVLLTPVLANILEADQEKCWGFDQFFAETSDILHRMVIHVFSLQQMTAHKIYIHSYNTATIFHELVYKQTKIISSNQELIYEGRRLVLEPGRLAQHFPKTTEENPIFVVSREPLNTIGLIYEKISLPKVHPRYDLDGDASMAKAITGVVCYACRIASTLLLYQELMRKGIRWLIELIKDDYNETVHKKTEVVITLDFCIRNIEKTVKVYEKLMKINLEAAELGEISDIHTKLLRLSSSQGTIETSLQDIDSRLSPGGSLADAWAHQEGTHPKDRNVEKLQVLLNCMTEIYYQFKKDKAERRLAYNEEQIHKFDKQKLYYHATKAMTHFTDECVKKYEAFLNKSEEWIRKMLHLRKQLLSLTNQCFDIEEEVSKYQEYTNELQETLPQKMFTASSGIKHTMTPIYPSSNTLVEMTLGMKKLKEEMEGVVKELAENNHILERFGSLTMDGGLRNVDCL
How it was run: as §1

Tie2(Y897S) (h) = Tie2(Y897S) (h) (Homo sapiens, UniProt Q02763, Y897S)
How it was run: as §1

BrSK2 (h) = molecular target: T4, BrSK2 (h) (Homo sapiens, UniProt Q8IWQ3)
T4 sequence (Q8IWQ3 1-736): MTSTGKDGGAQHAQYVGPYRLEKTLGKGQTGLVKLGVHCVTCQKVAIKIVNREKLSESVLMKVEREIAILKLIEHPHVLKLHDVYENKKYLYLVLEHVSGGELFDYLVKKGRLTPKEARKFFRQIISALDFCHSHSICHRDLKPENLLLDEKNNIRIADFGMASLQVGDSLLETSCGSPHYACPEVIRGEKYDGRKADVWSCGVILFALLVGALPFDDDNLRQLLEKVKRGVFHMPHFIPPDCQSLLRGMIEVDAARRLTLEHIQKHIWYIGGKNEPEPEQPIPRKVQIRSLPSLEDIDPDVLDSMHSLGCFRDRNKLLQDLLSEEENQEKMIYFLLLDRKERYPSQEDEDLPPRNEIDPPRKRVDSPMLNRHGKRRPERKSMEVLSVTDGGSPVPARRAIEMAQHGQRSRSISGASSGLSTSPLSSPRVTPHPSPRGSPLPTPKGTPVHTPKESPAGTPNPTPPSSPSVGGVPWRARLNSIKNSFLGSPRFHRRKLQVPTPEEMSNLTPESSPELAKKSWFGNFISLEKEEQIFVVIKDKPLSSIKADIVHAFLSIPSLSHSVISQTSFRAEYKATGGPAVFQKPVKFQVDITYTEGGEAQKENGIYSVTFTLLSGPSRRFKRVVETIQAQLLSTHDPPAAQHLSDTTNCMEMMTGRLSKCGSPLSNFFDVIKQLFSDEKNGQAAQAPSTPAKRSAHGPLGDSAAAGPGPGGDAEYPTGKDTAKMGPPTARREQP
How it was run: as §1

T1 sequence (Q9HC98 whole entry): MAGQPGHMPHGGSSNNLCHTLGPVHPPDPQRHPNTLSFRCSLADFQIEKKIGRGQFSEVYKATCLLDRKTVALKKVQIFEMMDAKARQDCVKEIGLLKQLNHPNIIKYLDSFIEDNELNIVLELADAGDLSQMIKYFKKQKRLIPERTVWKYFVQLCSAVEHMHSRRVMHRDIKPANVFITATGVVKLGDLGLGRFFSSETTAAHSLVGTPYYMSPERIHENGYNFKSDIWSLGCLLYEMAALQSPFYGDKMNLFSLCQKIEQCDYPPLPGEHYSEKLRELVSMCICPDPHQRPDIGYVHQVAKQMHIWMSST
Sequence of Tie2(Y897S) (h) (Q02763 23-1124 Y897S): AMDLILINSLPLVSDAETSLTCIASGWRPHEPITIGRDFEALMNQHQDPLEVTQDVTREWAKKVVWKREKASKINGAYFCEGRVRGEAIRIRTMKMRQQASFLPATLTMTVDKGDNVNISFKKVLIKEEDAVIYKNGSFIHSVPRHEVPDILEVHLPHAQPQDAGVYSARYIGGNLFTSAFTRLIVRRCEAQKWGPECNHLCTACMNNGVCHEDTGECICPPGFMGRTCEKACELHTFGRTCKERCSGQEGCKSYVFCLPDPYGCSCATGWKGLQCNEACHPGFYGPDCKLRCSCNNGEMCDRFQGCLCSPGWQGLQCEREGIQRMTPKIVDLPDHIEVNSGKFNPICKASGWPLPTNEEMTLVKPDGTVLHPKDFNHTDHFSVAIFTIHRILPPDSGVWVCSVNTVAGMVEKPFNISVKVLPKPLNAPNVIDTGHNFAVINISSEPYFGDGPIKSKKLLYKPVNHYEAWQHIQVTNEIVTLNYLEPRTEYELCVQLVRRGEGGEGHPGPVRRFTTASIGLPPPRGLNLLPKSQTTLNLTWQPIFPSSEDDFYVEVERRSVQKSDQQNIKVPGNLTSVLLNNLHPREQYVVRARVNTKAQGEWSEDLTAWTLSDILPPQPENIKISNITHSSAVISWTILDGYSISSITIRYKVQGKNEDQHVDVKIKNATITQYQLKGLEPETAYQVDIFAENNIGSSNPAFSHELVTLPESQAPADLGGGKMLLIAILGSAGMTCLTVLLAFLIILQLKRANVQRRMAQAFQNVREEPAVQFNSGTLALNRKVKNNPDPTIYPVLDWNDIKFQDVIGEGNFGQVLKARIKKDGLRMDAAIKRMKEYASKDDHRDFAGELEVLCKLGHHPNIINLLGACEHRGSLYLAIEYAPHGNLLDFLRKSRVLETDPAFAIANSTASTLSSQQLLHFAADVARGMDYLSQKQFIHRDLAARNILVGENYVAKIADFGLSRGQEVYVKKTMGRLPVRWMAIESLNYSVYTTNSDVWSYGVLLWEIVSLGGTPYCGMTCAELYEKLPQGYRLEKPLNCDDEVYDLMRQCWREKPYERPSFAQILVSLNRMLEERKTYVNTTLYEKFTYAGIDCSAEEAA
Sequence of Flt1 (h) (P17948 27-1338): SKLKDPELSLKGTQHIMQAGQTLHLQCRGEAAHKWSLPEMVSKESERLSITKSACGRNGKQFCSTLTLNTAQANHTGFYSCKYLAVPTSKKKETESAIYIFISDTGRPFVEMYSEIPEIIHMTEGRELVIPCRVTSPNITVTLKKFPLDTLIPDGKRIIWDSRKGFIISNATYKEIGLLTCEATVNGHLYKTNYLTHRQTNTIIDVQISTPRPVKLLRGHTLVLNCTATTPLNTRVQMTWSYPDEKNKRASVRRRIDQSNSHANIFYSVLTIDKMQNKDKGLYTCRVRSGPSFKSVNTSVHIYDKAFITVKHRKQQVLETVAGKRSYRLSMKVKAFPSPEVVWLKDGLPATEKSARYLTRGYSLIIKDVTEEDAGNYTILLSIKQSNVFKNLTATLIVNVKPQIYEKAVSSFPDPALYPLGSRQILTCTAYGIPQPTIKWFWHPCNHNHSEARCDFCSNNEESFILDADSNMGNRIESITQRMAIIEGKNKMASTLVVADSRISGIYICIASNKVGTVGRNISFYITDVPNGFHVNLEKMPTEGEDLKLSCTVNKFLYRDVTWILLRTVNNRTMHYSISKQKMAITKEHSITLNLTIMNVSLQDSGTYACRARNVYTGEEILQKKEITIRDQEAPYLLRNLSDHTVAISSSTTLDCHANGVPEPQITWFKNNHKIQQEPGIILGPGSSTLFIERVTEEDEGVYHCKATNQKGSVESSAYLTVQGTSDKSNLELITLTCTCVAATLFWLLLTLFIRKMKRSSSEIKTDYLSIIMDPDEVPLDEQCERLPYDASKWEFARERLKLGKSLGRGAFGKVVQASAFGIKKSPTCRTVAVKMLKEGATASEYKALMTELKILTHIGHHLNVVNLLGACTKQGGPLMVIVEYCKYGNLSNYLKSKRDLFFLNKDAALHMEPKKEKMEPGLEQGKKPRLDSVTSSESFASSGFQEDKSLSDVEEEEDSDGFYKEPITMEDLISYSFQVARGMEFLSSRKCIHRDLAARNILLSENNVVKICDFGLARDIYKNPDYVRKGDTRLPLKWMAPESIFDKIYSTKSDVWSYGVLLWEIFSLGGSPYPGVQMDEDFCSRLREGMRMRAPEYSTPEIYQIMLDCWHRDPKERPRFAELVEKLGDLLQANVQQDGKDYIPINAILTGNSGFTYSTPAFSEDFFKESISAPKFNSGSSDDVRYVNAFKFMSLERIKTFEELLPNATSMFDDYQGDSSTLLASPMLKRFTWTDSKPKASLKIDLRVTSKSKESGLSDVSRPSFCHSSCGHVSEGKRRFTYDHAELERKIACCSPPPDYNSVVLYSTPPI

## YARAAARQARAKALNRQLGVA (Mammalian) [MMI-0200]
Flt1 (h)
  % activity: 96%
NEK6 (h)
  % activity: 98%
Rse (h)
  % activity: 88%
TBK1 (h)
  % activity: 98%
Tie2(Y897S) (h)
  % activity: 85%

## HRRIKAWLKKIKALARQLGVAA (Mammalian) [MMI-0500]
BrSK2 (h)
  % activity: 84%
Flt1 (h)
  % activity: 27%
NEK6 (h)
  % activity: 49%
Rse (h)
  % activity: 63%
TBK1 (h)
  % activity: 16%
Tie2(Y897S) (h)
  % activity: 80%

## FAKLAARLYRKALARQLGVAA [MMI-0300]
BrSK2 (h)
  % activity: 83%
Flt1 (h)
  % activity: 69%
NEK6 (h)
  % activity: 82%
Rse (h)
  % activity: 88%
TBK1 (h)
  % activity: 37%
Tie2(Y897S) (h)
  % activity: 83%

## KAFAKLAARLYRKALARQLGVAA [MMI-0400]
BrSK2 (h)
  % activity: 86%
Flt1 (h)
  % activity: 48%
NEK6 (h)
  % activity: 85%
Rse (h)
  % activity: 89%
TBK1 (h)
  % activity: 39%
Tie2(Y897S) (h)
  % activity: 87%
